Our source for the Kd values is publication PMC5143326.

Assay [1] addresses LRP1 (Homo sapiens) (UniProt Q07954). Conditions: cited from earlier work.
Assay [2] addresses low density lipoprotein receptor-related protein 1 (LRP1), purified from placenta. The experiment in a line: SPR; Biacore T100; LRP1 immobilised on CM5 chip at 3.4 fmol/mm2; CCN-2 or its fragments flowed over; 10 mM Hepes pH 7.4, 150 mM NaCl, 5 mM CaCl2, 0.005 % surfactant P20; 25 °C; affinity constants by steady-state analysis. (SPR reads the build-up and loss of mass on a sensor chip optically.)

UniProt Q07954, sequence (Q07954 20-4544): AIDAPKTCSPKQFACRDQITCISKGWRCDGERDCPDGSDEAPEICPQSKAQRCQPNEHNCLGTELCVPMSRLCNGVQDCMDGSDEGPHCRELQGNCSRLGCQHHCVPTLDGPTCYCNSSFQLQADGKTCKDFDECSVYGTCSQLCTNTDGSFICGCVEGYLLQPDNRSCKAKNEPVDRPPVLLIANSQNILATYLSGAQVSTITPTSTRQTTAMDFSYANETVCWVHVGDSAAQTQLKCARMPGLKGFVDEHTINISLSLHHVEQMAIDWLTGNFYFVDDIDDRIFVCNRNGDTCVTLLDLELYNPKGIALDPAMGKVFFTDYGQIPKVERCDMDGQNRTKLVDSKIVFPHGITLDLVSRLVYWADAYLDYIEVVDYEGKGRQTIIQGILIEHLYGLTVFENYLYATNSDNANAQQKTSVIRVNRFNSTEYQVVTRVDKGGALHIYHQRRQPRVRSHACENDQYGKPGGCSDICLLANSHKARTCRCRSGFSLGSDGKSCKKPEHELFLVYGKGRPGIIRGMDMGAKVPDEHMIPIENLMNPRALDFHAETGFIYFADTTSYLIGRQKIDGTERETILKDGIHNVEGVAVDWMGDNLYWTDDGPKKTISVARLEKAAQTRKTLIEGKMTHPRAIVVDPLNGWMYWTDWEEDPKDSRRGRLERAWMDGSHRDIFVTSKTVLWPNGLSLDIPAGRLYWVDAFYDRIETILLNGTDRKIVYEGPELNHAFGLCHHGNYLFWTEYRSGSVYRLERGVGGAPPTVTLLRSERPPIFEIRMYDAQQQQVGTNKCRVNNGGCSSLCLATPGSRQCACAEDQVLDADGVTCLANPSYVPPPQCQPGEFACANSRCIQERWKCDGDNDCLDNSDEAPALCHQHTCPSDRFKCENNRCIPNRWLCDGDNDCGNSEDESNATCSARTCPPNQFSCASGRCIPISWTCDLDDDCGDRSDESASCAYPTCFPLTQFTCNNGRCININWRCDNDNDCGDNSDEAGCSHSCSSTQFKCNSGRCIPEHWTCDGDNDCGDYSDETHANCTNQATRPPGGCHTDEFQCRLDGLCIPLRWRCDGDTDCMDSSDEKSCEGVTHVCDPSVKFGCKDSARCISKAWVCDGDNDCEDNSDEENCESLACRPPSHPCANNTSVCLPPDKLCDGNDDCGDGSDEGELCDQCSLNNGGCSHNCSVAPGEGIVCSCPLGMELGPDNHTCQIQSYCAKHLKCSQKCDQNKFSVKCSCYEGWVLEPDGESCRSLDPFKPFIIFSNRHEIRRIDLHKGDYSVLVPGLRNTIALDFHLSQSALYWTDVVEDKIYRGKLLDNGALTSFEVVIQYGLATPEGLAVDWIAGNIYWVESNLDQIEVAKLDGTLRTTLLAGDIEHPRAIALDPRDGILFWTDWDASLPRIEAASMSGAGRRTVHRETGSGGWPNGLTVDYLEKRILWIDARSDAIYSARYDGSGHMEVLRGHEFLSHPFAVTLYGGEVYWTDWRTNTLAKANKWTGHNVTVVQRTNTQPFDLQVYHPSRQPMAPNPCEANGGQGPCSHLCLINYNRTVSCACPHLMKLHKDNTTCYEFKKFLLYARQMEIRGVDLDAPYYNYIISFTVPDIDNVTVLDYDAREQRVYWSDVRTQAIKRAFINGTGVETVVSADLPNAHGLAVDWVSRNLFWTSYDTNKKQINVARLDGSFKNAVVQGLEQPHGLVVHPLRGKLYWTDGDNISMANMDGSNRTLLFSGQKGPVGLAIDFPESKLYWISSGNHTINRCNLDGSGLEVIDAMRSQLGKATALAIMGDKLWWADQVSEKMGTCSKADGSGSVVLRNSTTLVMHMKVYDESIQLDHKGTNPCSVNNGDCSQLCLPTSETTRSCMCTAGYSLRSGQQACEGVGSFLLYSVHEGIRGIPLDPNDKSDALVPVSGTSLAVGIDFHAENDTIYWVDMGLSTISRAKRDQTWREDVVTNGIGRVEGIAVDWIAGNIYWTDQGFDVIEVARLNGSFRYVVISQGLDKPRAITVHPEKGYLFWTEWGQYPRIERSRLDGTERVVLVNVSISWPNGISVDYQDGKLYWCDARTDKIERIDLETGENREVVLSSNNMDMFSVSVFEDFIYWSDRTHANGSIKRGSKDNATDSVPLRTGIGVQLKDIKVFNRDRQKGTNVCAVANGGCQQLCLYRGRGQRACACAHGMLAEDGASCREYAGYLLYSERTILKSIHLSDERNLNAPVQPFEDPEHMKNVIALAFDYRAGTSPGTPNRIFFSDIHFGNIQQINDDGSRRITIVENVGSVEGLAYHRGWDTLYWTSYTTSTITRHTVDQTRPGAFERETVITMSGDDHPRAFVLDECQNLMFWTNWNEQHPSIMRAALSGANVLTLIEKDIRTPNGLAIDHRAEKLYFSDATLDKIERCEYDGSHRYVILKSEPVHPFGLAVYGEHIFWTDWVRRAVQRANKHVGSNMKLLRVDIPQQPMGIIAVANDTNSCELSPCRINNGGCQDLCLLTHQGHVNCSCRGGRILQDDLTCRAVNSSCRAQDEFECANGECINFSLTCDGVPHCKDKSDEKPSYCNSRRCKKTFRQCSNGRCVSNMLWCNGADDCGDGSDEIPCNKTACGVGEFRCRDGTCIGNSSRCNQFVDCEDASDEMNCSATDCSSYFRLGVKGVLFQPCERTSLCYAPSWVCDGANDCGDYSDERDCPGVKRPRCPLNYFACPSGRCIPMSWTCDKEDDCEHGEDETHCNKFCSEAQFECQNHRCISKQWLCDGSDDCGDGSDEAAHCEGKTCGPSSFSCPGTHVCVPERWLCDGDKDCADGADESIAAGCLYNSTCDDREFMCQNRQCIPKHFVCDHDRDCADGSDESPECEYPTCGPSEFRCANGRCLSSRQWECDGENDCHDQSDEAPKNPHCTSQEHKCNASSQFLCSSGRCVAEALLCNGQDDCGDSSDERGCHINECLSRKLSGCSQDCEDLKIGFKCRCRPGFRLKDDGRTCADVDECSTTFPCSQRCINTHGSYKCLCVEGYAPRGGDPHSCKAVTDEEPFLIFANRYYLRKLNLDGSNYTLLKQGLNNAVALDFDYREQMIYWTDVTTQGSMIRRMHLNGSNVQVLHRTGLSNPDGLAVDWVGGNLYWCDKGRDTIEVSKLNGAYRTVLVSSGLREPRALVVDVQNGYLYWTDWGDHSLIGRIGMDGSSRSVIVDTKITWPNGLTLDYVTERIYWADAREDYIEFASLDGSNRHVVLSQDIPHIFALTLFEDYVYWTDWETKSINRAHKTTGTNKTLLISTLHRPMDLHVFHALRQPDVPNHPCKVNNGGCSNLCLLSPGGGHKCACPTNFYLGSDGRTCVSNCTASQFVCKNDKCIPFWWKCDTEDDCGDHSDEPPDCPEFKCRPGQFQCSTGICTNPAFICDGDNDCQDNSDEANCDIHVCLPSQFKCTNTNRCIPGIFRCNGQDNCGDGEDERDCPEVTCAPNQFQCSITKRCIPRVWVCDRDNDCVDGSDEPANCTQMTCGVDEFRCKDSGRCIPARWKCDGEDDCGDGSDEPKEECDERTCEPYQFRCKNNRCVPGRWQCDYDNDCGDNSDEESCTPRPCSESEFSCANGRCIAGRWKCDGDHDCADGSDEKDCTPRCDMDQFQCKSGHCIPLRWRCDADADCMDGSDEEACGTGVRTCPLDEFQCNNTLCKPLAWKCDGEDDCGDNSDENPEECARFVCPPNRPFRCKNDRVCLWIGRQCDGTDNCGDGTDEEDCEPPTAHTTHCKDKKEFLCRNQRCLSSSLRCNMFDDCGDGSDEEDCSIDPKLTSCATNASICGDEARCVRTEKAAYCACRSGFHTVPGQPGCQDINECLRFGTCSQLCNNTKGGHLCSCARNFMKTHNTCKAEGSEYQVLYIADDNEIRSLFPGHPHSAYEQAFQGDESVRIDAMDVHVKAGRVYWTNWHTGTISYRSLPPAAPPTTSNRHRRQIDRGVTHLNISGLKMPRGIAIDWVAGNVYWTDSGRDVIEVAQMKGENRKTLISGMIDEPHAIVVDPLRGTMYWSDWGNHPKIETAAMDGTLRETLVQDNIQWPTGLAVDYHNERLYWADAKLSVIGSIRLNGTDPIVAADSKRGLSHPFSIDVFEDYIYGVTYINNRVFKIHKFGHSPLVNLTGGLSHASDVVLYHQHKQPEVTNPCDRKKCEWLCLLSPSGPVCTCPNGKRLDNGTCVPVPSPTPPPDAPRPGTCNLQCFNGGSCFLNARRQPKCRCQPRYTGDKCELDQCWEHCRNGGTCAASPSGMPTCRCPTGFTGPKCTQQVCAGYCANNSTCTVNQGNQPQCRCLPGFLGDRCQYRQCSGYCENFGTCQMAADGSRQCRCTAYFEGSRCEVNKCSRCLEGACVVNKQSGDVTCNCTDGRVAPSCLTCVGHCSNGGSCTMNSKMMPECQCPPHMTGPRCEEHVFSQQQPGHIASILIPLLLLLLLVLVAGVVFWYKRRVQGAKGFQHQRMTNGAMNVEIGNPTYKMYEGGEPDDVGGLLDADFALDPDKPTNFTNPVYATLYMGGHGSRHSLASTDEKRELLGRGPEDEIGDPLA

With RAP (from UniProt P30533), the Kd (commonly the constant that tells how readily two partners part at equilibrium) in assay [1] was 5.4 nM.

In assay [2], “recombinant human full length CCN-2 (connective tissue growth factor) (from UniProt P29279 27-349) (natural protein)” showed a Kd of 116 nM.

In assay [2], “recombinant human CCN-2 C-terminal fragment (domain 3 and 4) (domain or fragment)” displayed a Kd of 112 nM.
